Measurements: article PMC7154664 (Angewandte Chemie (International Ed. in English), 2020)
Positions count from the first letter of the chain named. Names may count otherwise.

T1: YciA (Escherichia coli, UniProt P0A8Z0)
T1 sequence (P0A8Z0 1-132): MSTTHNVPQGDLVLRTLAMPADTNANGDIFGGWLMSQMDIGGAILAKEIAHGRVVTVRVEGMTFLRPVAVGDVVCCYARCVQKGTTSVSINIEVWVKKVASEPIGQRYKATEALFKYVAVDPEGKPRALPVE

B1: OXCMe (Methylorubrum extorquens AM1) (protein)
chain: MTVQAQNIDAITAGAMPHEEPELTDGFHLVIDALKLNGIETIYNVPGIPITDLGRLAQAEGLRVISFRHEQNAGNAAAIAGFLTKKPGICLTVSAPGFLNGLTALANATTNCFPMILISGSSEREIVDLQQGDYEEMDQLAIAKPLCKAAFRVLHAADIGIGVARAIRAAVSGRPGGVYLDLPAKLFSQVIDADLGARSLVKVIDAAPAQLPAPAAIARALDVLKSAERPLIILGKGAAYAQADEAVRALVEESGIPYVPMSMAKGLLPDTHPLSAGAARSTALKDSDVVLLVGARLNWLLSHGKGKTWGEPGSKRFIQIDIEPREMDSNVEIVAPVVGDIGSCVEALLDGIRKDWKGAPSNWLETLRGKREANIAKMAPKLMKNSSPMCFHSALGALRTVIKERPDAILVNEGANTLDLARGIIDMYQPRKRLDVGTWGVMGIGMGFAVAAAVETGKPVLAVEGDSAFGFSGMEVETICRYELPVCIVIFNNNGIYRGTDTDPTGRDPGTTVFVKNSRYDKMMEAFGGVGVNVTTPDELKRAVDEAMNSGKPTLINAEIDPAAGSESGNIGSLNPQSTLKKK
B2: OXCMe (Methylorubrum extorquens AM1; Y497A) (protein)
chain: B1 chain with Y497A
B3: OXCMe (Methylorubrum extorquens AM1; S568A/Y497A) (protein)
chain: B1 chain with Y497A, S568A
B4: OXCMe (Methylorubrum extorquens AM1; S568A) (protein)
chain: B1 chain with S568A

Legend:
HACLHs = HACLHs (Homo sapiens, UniProt Q9UJ83); assay: carboligation, LC-MS product analysis after […] h; assay type: biochemical; details: formyl-CoA 1 mM as C1 donor, aldehyde 10 mM, enzyme 5 μM
YciA = target: T1, YciA; assay: thioesterase activity assay; assay type: biochemical; details: racemic mandelyl-CoA 0.5 mM, YciA 2 μM
purified protein = substrate: CC(C)(COP(=O)(O)OP(=O)(O)OC[C@H]1O[C@@H](n2cnc3c(N)ncnc32)[C@H](O)[C@@H]1OP(=O)(O)O)[C@@H](O)C(=O)NCCC(=O)NCCSC(=O)C(=O)O; assay: purified protein; details: decarboxylation to formyl-CoA; ThDP-dependent

Sequence of HACLHs (Q9UJ83 whole entry): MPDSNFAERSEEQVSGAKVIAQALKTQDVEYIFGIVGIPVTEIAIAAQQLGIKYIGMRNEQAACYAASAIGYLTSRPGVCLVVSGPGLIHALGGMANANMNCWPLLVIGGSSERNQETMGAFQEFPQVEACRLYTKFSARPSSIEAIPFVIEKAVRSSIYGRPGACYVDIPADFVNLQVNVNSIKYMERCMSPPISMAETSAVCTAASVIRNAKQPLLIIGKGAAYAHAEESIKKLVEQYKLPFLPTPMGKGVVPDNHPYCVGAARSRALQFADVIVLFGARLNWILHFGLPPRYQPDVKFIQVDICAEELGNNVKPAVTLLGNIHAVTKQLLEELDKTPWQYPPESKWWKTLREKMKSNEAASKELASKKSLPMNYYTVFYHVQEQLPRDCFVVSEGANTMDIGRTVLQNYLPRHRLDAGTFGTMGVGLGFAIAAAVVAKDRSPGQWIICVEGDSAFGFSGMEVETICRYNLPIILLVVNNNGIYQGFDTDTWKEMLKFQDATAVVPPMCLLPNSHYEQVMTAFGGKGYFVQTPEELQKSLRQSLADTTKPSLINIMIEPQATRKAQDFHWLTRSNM

| Molecule | carboligation, LC-MS product analysis after 1 h (HACLHs) | thioesterase activity assay (YciA) | Km (purified protein) | kcat (purified protein) | kcat/Km (purified protein) |
| --- | --- | --- | --- | --- | --- |
| CC(C)(COP(=O)(O)OP(=O)(O)OC[C@H]1O[C@@H](n2cnc3c(N)ncnc32)[C@H](O)[C@@H]1OP(=O)(O)O)[C@@H](O)C(=O)NCCC(=O)NCCSC=O [formyl‐CoA] | HACLHs and OXCMe are able to perform nucleophilic C1‐extension reactions of different aldehydes with formyl‐CoA | – | – | – | – |
| CC(C)(COP(=O)(O)OP(=O)(O)OC[C@H]1O[C@@H](n2cnc3c(N)ncnc32)[C@H](O)[C@@H]1OP(=O)(O)O)[C@@H](O)C(=O)NCCC(=O)NCCSC(=O)C(O)c1ccccc1 (stereo partly drawn) [mandelyl‐CoA] | – | YciA showed relatively high mandelyl‐CoA thioesterase activity | – | – | – |
| B1 | – | – | 105 ± 11 µM | 98 ± 3 s⁻¹ | 930000 M⁻¹ s⁻¹ |
| B2 | – | – | 180 ± 17 µM | 1.32 ± 0.04 s⁻¹ | 7300 M⁻¹ s⁻¹ |
| B3 | – | – | 103 ± 15 µM | 0.32 ± 0.01 s⁻¹ | 3100 M⁻¹ s⁻¹ |
| B4 | – | – | 23 ± 2 µM | – | – |
